According to article PMC6561935, “Hsp90 middle domain phosphorylation initiates a complex conformational program to recruit the ATPase-stimulating cochaperone Aha1” (Nature Communications, 2019):

Columns and labels:
Hsp90-H210A (human) = Hsp90-H210A (human) (UniProt P07900); test: ITC; 20 mM Tris pH 7.5, 5 mM NaCl, 1 mM EDTA, 30 °C; Hsp90 listed as protein, hAha1 as ligand; at least 3 experiments
[1] = biological target: purified Hsp90-H210A (human) (UniProt P07900); test: ITC; Supplementary Table 2, obtained separately: 20 mM Tris pH 7.5, 5 mM NaCl, 1 mM EDTA, 30 °C

| Kd (Hsp90-H210A (human)) [µM] | stoichiometry N (Hsp90-H210A (human)) | fold increase of Kd against wild-type Hsp90 [1] [fold] | Substance |
| --- | --- | --- | --- |
| 14.6 | 0.37 | – | Human Aha1 (wild-type, full-length) (from UniProt O95433 1-338) (natural protein) |
| – | – | 2 | purified full-length Aha1 (from UniProt O95433 1-338) (natural protein) |
